Source: the DeepSol protein solubility set

Test: soluble on expression in E. coli; label from the status in PepcDB or PDB records

| Sequence | soluble on expression in E. coli |
| --- | --- |
| MLGLVSLCALILILWRVVYRSVTRPLAEQTQALQRLLDGDIDSPFPETAGVRELDTIGRLMDAFRSSVHALNRHREQLAAQVKARTAELQELVIEHRQARAEAEKASQAKSAFLAAMSHEIRTPLYGILGTAQLLADNPALNAQRDDLRAITDSGESLLTILNDILDYSAIEAGGKNVSVSDEPFEPRPLLESTLQLMSGRVKGRPIRLATEIADDVPTALMGDPRRIRQVITNLLSNALRFTDEGHIILRSRTDGEQWLVEVEDSGCGIDPAKLAEIFQPFVQVSGKRGGTGLGLTISSRLAQAMGGELSATSTPEVGSCFCLRLPLRIATAPVPKTVNQAVRLDDLRLLLIEDNPLTQRITVEMLNTSGAQVVAVGNAAQAIEALQNSEPFAAALVDFDLPDIDGITLARQLAQQYPSLVLIGFSAHVIDETLRQRTSSLFRGIIPKPVPREVLGQLLAHYLQLQVNNDQPLDVSQLNEDAHLMGAEKIHEWLILFKQHALPLLDEIDIARASQDNEKIKRAAHQLKSSCSSLGMRSASQQCAQLEQQPLSAPLPHEEITRSVAALEAWLIRKT | not soluble |
| MLKELEVNGKRFFLAPESNFWAIGEREEVERFYRERKDALLEEMQRYRFEVDIRTAYINPTESCNRNCPYCYIPAEIRERGTKMSYEKLEEILTVLAENGVERVIFHGAEPLMVKDEIFRAMEDFDFKYGIQTNATLLEEEDAELLMKKGASVGISLDSPYKETNDYLRGKGHYDAVMRALDFFDGYRSLNIIMTVNKHNFQHLPAMVDFLAGKVSVMLANPVRGTSPGGRELRPPEGFEDYYIKAIDRAIENTKSGRRIVIGDFANILLGLVAPTSRVLQCDISPCGGGRRFFAVSADGIYPCGEFIGMEEFRANLSALSDWSSLIEKFEVVRKRTVEQIEECRNCEFRNLCGAPCPAEIYAESGTMLRKSPYCEFYKKLALKAMDVIARGDVRNVLKLERMKAIYRVEDF | not soluble |
| MLKGKKILLCVTGGIAVFKAAALTSKLTQAGAIVKVMMSESAVKFVTPLTFQALSRHDVYTDTFDEKDSAVIAHIDLADWADVVLVAPATANCIGKLANGIADDMITTTLLATTAPVWIAPAMNVHMYENKIVQKNMMTLKTLGYTFIEPGEGFLACGYVAKGRLEEPEAIIARLEEAFSEQKPLQGKRILITAGPTREKIDPVRFMTNFSSGKMGYAIAEVAVNLGAEVILVSGPTALNPPLHVTTVQVESAQDMLEAVIQHYQNVDVVIKTAAVADYRPKYVHDNKMKKKNGDAVIELERTVDILKTLGEMKDKQLLIGFAAETTNVEEYATKKLREKNANMIVANDVKAQGAGFGTDTNIVTMYRKDGEVIELPLLTKKEVAREILKQIEMMLEDDRL | soluble |
| MLKGKVALVTGASRGIGRAIAKRLANDGALVAIHYGNRKEEAEETVYEIQSNGGSAFSIGANLESLHGVEALYSSLDNELQNRTGSTKFDILINNAGIGPGAFIEETTEQFFDRMVSVNAKAPFFIIQQALSRLRDNSRIINISSAATRISLPDFIAYSMTKGAINTMTFTLAKQLGARGITVNAILPGFVKTDMNAELLSDPMMKQYATTISAFNRLGEVEDIADTAAFLASPDSRWVTGQLIDVSGGSCL | not soluble |
| MLKKKVNNDAGKTFILISSSCSSCQKAIEYFKENNLSYTIENFYKKPISDKRFRDILSLSEDGTESLFSKRADQIRSNTNQSVEDLTIPELIKLIRERPSILRRPIIIQYNSSGIPKRMRIGYNAAEIKVFERSLMEPKVRTVKK | soluble |
| MLKKTLAALALGSALFTAGQAMAADYKIDKEGQHAFIEFRIKHLGYSWLYGRFNDFDGSFTFDEKNPSADKVKVTINTNSVDTNHAERDKHLRSGDFLNVSKNPTATFESTEVKANGDSADITGNLTLNGVTKPVTIKAKLIGQGDDPWGGYRAGFEGSATLKLKDFGIKMDLGPASQEVELLLSVEGIRQ | not soluble |
| MLKVDKVFPWETFRGKLESPYSKKPKWDVILLLKVLLIKFVYEISWLEGEIRDSKMFMKFLGGKVHQKSILLLQETVVDEGERMWTTLMTQQGLRQGDLEHHHHHH | not soluble |
| MLKVIRRFFTAKQRQTPAKQDVELESGRGWAGLEEWRLVAKYSVGPVEYYLYRDNSEGVRLTFKEPPEPGEAVVKEIIAGNIEPVGEGERYHAEKRMSGYGRLYPLIIDGHIEEIAFEGPGRGVSVIHSLVPGRWIDVDLKLGEDEANSLALQLARKAGRSLSLAQPLAEGLTGEGHRVAVTFSREVSRFGSSFVIRKYPEKPVTMADLVASRVLTPLQAAYLWLLVESQQFIVVSGPMGSGKTTLLQALAGLIPPFYRVITIEDTPEIRLYNRHWDSLVTRPPLPGESMVEVDLEALLRFALRRRAEYIIVGEVRGREARLLAQAAASGHGSMTTMHGDTPEGVILRLQLEPISLPPVFLSLIGAIVMLRRLPGYGGAVRRRVVSITEIEGGEAVDVFAWDPKGDLVSPDNPRDIVESSFRLREAVSRIPDLITDLEAELSERAGLLEKLAGSPPEVFHKALARFYSERYGRV | soluble |
| MLLCDTNIWLALALSGHVHHRASRAWLDTINAPGVIHFCRATQQSLLRLLTNRTVLGAYGSPPLTNREAWAAYAAFLDDDRIVLAGAEPDGLEAQWRAFAVRQSPAPKVWMDAYLAAFALTGGFELVTTDTAFTQYGGIELRLLAK | not soluble |
| MLLMEKILYQTDEFKLKPSGWYKTIPPKKDGGTEFEIMLSGPIAFTDRFIDPATRKEKVFLSDLNNIELVEKASILTALQLPSLIEYGFTINEKHIRDLGFVLQQMRSTTPLSTIYSGVGMLHTLLGPLISLDQPYFSNEITNSTSIICDNKYDLIPKGNLSEWLQMYKEEVHGNLSLELDVLFGVSSLVTAFLKYHNNVEFSGTIFSFTGQSSTGKSTAAMLAASVAGNPTKGTENLFRSWNATRNALEGYLSGNYGVPIVLDELSAATFHDTTGLLYSFAEGQGRQRANINGDVKTPKNLEHHHHHH | not soluble |
| MLNDLYEEIKLRKTQPREGSYTNYLFDKGLDKILKKVGEEATEVVIAAKNDNQELIAEVSDLAYHLLVLLAEKNIPLVAIQTELQKREGKLSTTRDRKEINDL | not soluble |
| MLNSYELGTSFSLEYPRLVLPWMSKKMMSSRFPQHTSFKLYASQLNRARFFKMLSFGGTVSYDFQPSRVWKHTVTPFRLAFNTLQHTTTRFDTIVDKNRSLKISLGNQFIPAMSYTFTYDNAPLKKRNNLWWETSFTSAGNLTSLVYAAFGKGFKETDKKLLNSPYAQFLKMTSEVRCLFKVGEKQHIATRLMGGILYAYGNQTVAPYSEQFYIGGANSIRAFTVRSIGPGSYRPEDKQYGYLDETGDVKLEANVEYRFPILGDLYGAAFLDAGNVWLLREQKNEEGENIRPGGLLTLRNFAKSIALGTGVGLRYDLTFLVIRLDLGIALHDPYDTGKKGYYNIPKFKDGLGLHFAIGYPFLEHHHHHH | soluble |
| MLNTKSPSPANSNYDFALRHERVKLIARALKQFGVYITRTTQAMREVASCLSLVGQSYHEVAQCVNNTNPHSRADQDCYISFNRQLVESYGANLQNAATLFSAEMMNIKNGEQFLSYNKSVHRTVMTRLHDVLKMAQRTRDLGDDVKAELKKATSCRKVVSRKEAKYIRKGRPLTESKLYVRQSERMRKHDQAYEAKLRTFDTEYESLMQRQLYVAGHTMDDFLDMNTVYLSHILKVLGCLAPNGAEAIQKMLDSGEKLSDLLGIAPEDQLGCRLRAQNVDVLNSSNVTPVKRGVGATPGKGTPAKSSCCGSSHNFTSYYQNRRQAALYVEGAPPTARALGEDSRGSSEPCQTLSETPERQLISNQTPLRATFGSAAICRAASHSYSAAEPAAPSPLQPPSFPAAVRRVDAAPVPYVKPLAIGLHASCGSPGTTTDAAKQTCPAGNAAPAAWVVKTGGRRGSVCDTTNSRTRVELSLGHAQFDDDNTAAGAPPAACLAPAPPPAQYSEERPMERPLGRSEVPAAQAAMFGLDVARSAAPFDDQLVADSCRRTSLLSLKPVALFPLDVSESSISRKVAPRTSAATTSVANPSTQQRSRRDRKKHKTTKVVAAARGVPLPGTASAPPDEDTMSRSTSTQSQEALESSIHGYHAAHYHCPPPQQLHNLKQHPQRDSAPVSLAHFQMELTGCSGDAPCQWRNDGLCSEAGGVSGRSQRLSTSYGLDSPTPTPQPFALGTHAWEDSQVRPCSSA | not soluble |
